Results published in patent US20110195900A1, “PEPTIDIC PTH RECEPTOR AGONISTS” (FERRING B.V., priority 2008, published 2011).
Starred links: 1 amine or outer side, 2 acyl side, 3 side chain; linkers in the order of their positions; H or OH if unused. Non-standard residues stand in square brackets, D forms with d. Residues, ends and D or L forms follow the SMILES beside them. No end group written: not given here. hSer(OMe) = COCC[C@H](N[*:1])C(=O)[*:2]; 1Nal = N[C@@H](Cc1cccc2ccccc12)C(=O)O; β3hI = CC[C@H](C)[C@H](N)CC(=O)O; β3hR = N=C(N)NCCC[C@H](N)CC(=O)O; β3hF = N[C@H](CC(=O)O)Cc1ccccc1; β3hK = NCCCC[C@H](N)CC(=O)O; Nle = CCCC[C@H](N)C(=O)O; Aib = CC(C)(N)C(=O)O; βAla = NCCC(=O)O

T1: human PTH-1 receptor (Homo sapiens, UniProt Q03431)
T1 construct: expressed in transfected cells; host or cells: HEK-293
T1 sequence (Q03431 27-593): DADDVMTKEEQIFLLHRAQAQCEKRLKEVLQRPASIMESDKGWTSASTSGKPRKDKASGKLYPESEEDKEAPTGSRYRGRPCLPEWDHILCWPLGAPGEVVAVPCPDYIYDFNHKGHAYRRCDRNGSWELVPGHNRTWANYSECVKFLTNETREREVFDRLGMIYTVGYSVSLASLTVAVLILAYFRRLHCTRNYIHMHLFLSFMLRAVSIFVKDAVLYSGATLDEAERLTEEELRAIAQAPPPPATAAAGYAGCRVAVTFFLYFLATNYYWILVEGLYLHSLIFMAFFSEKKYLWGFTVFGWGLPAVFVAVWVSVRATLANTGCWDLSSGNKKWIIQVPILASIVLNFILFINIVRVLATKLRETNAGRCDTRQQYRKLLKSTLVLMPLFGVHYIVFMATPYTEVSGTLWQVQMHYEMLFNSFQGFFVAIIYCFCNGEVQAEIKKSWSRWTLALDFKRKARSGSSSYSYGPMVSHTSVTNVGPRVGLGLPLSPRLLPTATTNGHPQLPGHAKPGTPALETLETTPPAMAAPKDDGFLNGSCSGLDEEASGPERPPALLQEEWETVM

B1: [Aib^1, Nle^8, hSer(OMe)^18, β-hLys^19, 1-Nal^23, Leu^27] hPTH (1-$$4)-NH2 (peptide)
peptide: [Aib]VSEIQL[Nle]HNLGKHLNS[hSer(OMe)][β3hK]RVE[1Nal]LRKLLQDVHNF-NH2
modifications: N-terminus assumed
SMILES: CCCC[C@H](NC(=O)[C@H](CC(C)C)NC(=O)[C@H](CCC(N)=O)NC(=O)[C@@H](NC(=O)[C@H](CCC(=O)O)NC(=O)[C@H](CO)NC(=O)[C@@H](NC(=O)C(C)(C)N)C(C)C)[C@@H](C)CC)C(=O)N[C@@H](Cc1c[nH]cn1)C(=O)N[C@@H](CC(N)=O)C(=O)N[C@@H](CC(C)C)C(=O)NCC(=O)N[C@@H](CCCCN)C(=O)N[C@@H](Cc1c[nH]cn1)C(=O)N[C@@H](CC(C)C)C(=O)N[C@@H](CC(N)=O)C(=O)N[C@@H](CO)C(=O)N[C@@H](CCOC)C(=O)N[C@@H](CCCCN)CC(=O)N[C@@H](CCCNC(=N)N)C(=O)N[C@H](C(=O)N[C@@H](CCC(=O)O)C(=O)N[C@@H](Cc1cccc2ccccc12)C(=O)N[C@@H](CC(C)C)C(=O)N[C@@H](CCCNC(=N)N)C(=O)N[C@@H](CCCCN)C(=O)N[C@@H](CC(C)C)C(=O)N[C@@H](CC(C)C)C(=O)N[C@@H](CCC(N)=O)C(=O)N[C@@H](CC(=O)O)C(=O)N[C@H](C(=O)N[C@@H](Cc1c[nH]cn1)C(=O)N[C@@H](CC(N)=O)C(=O)N[C@@H](Cc1ccccc1)C(N)=O)C(C)C)C(C)C

How the values were obtained:
human PTH-1 receptor = molecular target: T1, human PTH-1 receptor; assay: Reporter gene assay (CRE-luciferase) for agonist activity in transiently transfected HEK-293 cells; assay type: cell-based; details: for hPTHR-2/hPTHR-1: Table 3, selectivity for hPTH-1 receptor over hPTH-2 receptor
How it was run: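 HEK-293 cells transiently transfected with SV40-driven human PTH-1 receptor and CRE-luciferase reporter, exposed to serial compound dilutions for 4-5 h, then lysed for luciferase readout; efficacy and EC50 by non-linear regression, PTH (1-34) as internal control, n≥3. Selectivity measured in analogous human PTH-2 receptor luciferase reporter assays.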

human PTH-2 receptor = molecular target: T2, human PTH-2 receptor (Homo sapiens, UniProt P49190); assay: Luciferase-based transcriptional reporter gene assay for selectivity; assay type: cell-based
T2 construct: expressed in transfected cells
T2 sequence (P49190 25-550): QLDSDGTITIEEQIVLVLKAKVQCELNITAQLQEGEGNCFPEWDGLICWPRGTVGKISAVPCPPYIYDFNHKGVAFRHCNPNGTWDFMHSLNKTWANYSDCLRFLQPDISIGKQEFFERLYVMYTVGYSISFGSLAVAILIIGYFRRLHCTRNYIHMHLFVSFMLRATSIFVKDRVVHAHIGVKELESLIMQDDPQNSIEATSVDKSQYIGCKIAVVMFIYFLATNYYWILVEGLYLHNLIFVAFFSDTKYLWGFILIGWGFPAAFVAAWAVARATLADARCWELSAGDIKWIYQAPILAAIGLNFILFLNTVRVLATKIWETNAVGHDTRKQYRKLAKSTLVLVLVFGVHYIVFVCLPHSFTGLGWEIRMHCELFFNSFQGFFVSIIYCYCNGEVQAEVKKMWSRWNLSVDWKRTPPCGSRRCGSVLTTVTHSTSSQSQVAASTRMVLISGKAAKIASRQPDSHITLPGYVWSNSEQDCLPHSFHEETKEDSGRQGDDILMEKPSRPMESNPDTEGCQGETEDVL
Procedure: Agonist activity of compounds on the human PTH-1 receptor was determined in a reporter gene assay by transiently transfecting HEK-293 cells with plasmids encoding human PTH-1 receptor under control of the SV40 promoter and a luciferase reporter gene under control of cAMP responsive elements (CRE). See Himmler et al, J. Recept. Res. 13 (1993) 79-94, for further guidance on this assay. Transfected cells were exposed to serial dilutions of compounds for 4-5 hours followed by lysis of cells, determination of luciferase activity, and determination of compound efficacies and EC50 values through non-linear regression.
PTH (1-34) was used as an internal control in each experiment and compounds were tested in at least three independent experiments. To determine selectivity, compounds were tested in luciferase-based transcriptional reporter gene assays expressing the human PTH-2 receptor.

[1] = molecular target: human parathyroid hormone receptor 2 (human, UniProt P49190); assay: cell-based or functional assay
[2] = molecular target: human parathyroid hormone receptor 1 (human, UniProt Q03431); assay: cell-based or functional assay

Molecule	hPTHR-2 EC50 (nM), luciferase reporter gene assay [1] [nM]	hPTHR-1 EC50 (nM), CRE-luciferase reporter gene assay [2] [nM]	further results
CCCC[C@H](NC(=O)[C@H](CC(C)C)NC(=O)[C@H](CCC(N)=O)NC(=O)[C@@H](NC(=O)[C@H](CCC(=O)O)NC(=O)[C@H](CO)NC(=O)[C@@H](NC(=O)[C@@H](N)CO)C(C)C)[C@@H](C)CC)C(=O)N[C@@H](Cc1c[nH]cn1)C(=O)N[C@@H](CC(N)=O)C(=O)N[C@@H](CC(C)C)C(=O)NCC(=O)N[C@@H](CCCCN)C(=O)N[C@@H](Cc1c[nH]cn1)C(=O)N[C@@H](CC(C)C)C(=O)N[C@@H](CC(N)=O)C(=O)N[C@@H](CO)C(=O)N[C@H](CC(=O)N[C@@H](CCC(=O)O)C(=O)N[C@@H](CCCNC(=N)N)C(=O)N[C@H](C(=O)N[C@@H](CCC(=O)O)C(=O)N[C@@H](Cc1cccc2ccccc12)C(=O)N[C@@H](CC(C)C)C(=O)N[C@@H](CCCNC(=N)N)C(=O)N[C@@H](CCCCN)C(=O)N[C@@H](CC(C)C)C(=O)N[C@@H](CC(C)C)C(=O)N[C@@H](CCC(N)=O)C(=O)N[C@@H](CC(=O)O)C(=O)N[C@H](C(N)=O)C(C)C)C(C)C)[C@@H](C)CC [SEQ ID NO: 1, [Nle^8, β-hIle^18,1-Nal^23, Leu^27] hPTH-(1-31)-NH2] (H-SVSEIQL[Nle]HNLGKHLNS[β3hI]ERVE[1Nal]LRKLLQDV-NH2; N-terminus assumed)			EC50 (human PTH-1 receptor): 0.09 nM; hPTHR-2/hPTHR-1 (human PTH-1 receptor; ratio of EC50 values): 339; potency at the hPTH-1 receptor compared to PTH (1-34) (human PTH-1 receptor; in words): Improved potency; EC50 (human PTH-2 receptor): 32 nM
CCCC[C@H](NC(=O)CCNC(=O)[C@H](CC(N)=O)NC(=O)[C@H](CC(C)C)NC(=O)[C@H](Cc1c[nH]cn1)NC(=O)[C@H](CCCCN)NC(=O)CNC(=O)[C@H](CC(C)C)NC(=O)[C@H](CC(N)=O)NC(=O)[C@H](Cc1c[nH]cn1)NC(=O)[C@H](CCCC)NC(=O)[C@H](CC(C)C)NC(=O)[C@H](CCC(N)=O)NC(=O)[C@@H](NC(=O)[C@H](CCC(=O)O)NC(=O)[C@H](CO)NC(=O)[C@@H](NC(=O)C(C)(C)N)C(C)C)[C@@H](C)CC)C(=O)N[C@@H](CCC(=O)O)C(=O)N[C@@H](CCCNC(=N)N)C(=O)N[C@H](C(=O)N[C@@H](CCC(=O)O)C(=O)N[C@@H](Cc1cccc2ccccc12)C(=O)N[C@@H](CC(C)C)C(=O)N[C@@H](CCCNC(=N)N)C(=O)N[C@@H](CCCCN)C(=O)N[C@@H](CC(C)C)C(=O)N[C@@H](CC(C)C)C(=O)N[C@@H](CCC(N)=O)C(=O)N[C@@H](CC(=O)O)C(=O)N[C@H](C(=O)N[C@@H](Cc1c[nH]cn1)C(=O)N[C@@H](CC(N)=O)C(=O)N[C@@H](Cc1ccccc1)C(N)=O)C(C)C)C(C)C [SEQ ID NO: 2, [Aib^1, Nle^8,18, β-Ala^17,1-Nal^23, Leu^27] hPTH (1-34)-NH2] (H-[Aib]VSEIQL[Nle]HNLGKHLN[βAla][Nle]ERVE[1Nal]LRKLLQDVHNF-NH2)			EC50 (human PTH-1 receptor): 0.06 nM; hPTHR-2/hPTHR-1 (human PTH-1 receptor; ratio of EC50 values): 566; Selectivity hPTHR-2/hPTHR-1 (human PTH-1 receptor; Table 4 comparison data, ratio of EC50 values): 566; EC50 (human PTH-2 receptor): 31 nM
SVSEIQL[Nle]HSLGKHLKS[β3hI]ERVE[1Nal]LRKLLQRVHEE-NH2 [[Nle^8, Ser^10, Lys^16, β-hIle^18, 1-Nal^23, Leu^27, Arg^30, Glu^33, Glu^34] hPTH (1-34)-NH2]	6	0.04	
SVSEIQL[Nle]HSLGKHLKS[β3hI]ERVE[1Nal]LRKLLQRV-NH2 [[Nle^8, Ser^10, Lys^16, β-hIle^18, 1-Nal^23, Leu^27, Arg^30] hPTH (1-31)-NH2]	7	0.08	
[Aib]VSEIQL[Nle]HNLGKHLNS[β3hR]ERVE[1Nal]LRKLLQDVHNF-NH2 [[Aib^1, Nle^8, β-hArg^18, 1-Nal^23, Leu^27] hPTH (1-34)-NH2]	16	0.05	
[Aib]VSEIQL[Nle]HNLGKHLKS[β3hI]ERVE[1Nal]LRKLLQRVHEF-NH2 [[Aib^1, Nle^8, Lys^16, β-hIle^18, 1-Nal^23, Leu^27, Arg^30, Glu^33] hPTH (1-34)-NH2]	6	0.09	
SVSEIQL[Nle]HSLGKHLKS[β3hI]ERVE[1Nal]LRKLLQRVHEF-NH2 [[Nle^8, Ser^10, Lys^16, β-hIle^18, 1-Nal^23, Leu^27, Arg^30, Glu^33] hPTH(1-34)-NH2]	8	0.12	
SVSEIQL[Nle]HNLGKHLKS[β3hI]ERVE[1Nal]LRKLLQRVHNF-NH2 [[Nle^8, Lys^16, β-hIle^18, 1-Nal^23, Leu^27, Arg^30] hPTH (1-34)-NH2]	14	0.14	
[Aib]VSEIQL[Nle]HNLGKHLNS[β3hI]ERVE[1Nal]LRKLLQDVHNF-NH2 [[Aib^1, Nle^8, β-hIle^18, 1-Nal^23, Leu^27] hPTH (1-34)-NH2]	16	0.04	
[Aib]VSEIQL[Nle]HNLGKHLN[β3hF][hSer(OMe)]ERVE[1Nal]LRKLLQDVHNF-NH2 [[Aib^1, Nle^8, β-hPhe^17, hSer(OMe)^18, 1-Nal^23, Leu^27] hPTH-(1-34)-NH2]	117	0.1	
[Aib]VSEIQL[Nle]HSLGKHLKS[β3hI]ERVE[1Nal]LRKLLQRVHEF-NH2 [[Aib^1, Nle^8, Ser^10, Lys^16, β-hIle^18, 1-Nal^23, Leu^27, Arg^30, Glu^33] hPTH (1-34)-NH2]	6	0.09	
[Aib]VSEIQL[Nle]HSLGKHLKS[β3hI]ERVE[1Nal]LRKLLQRV-NH2 [[Aib^1, Nle^8, Ser^10, Lys^16, β-hIle^18, 1-Nal^23, Leu^27, Arg^30] hPTH (1-31)-NH2]	6	0.09	
SVSEIQL[Nle]HNLGKHLNS[β3hF]ERVE[1Nal]LRKLLQDVHNF-NH2 [[Nle^8, β-hPhe^18, 1-Nal^23, Leu^27] hPTH (1-34)-NH2]	10	0.11	
SVSEIQL[Nle]HNLGKHLKS[β3hI]ERVE[1Nal]LRKLLQRVHEF-NH2 [[Nle^8, Lys^16, β-hIle^18, 1-Nal^23, Leu^27, Arg^30, Glu^33] hPTH (1-34)-NH2]	14	0.09	
B1	3	0.05	
[Aib]VSEIQL[Nle]HNLGKHLNS[β3hF]ERVE[1Nal]LRKLLQDVHNF-NH2 [[Aib^1, Nle^8, β-hPhe^18, 1-Nal^23, Leu^27 hPTH (1-34)-NH2]	5	0.06	
